Sequences and labels used below:
B1: CPEB3 Ribozyme (parent)
chain: GGGGGCCACAGCAGAAGCGUUCACGUCGCGGCCCCUGUCAGAUUCUGGUGAAUCUGCGAAUUCUGCUGU

These results are taken from the RNAGym collection of RNA variant scans (doi:10.7554/elife.80360).

Variants of B1 are the subject of the data set. The experiment in a line: self-cleavage, relative activity (ratio to wild type); higher = more cleavage; co-transcriptional.
Regarding C33A U49G, the self-cleavage was found to be 0.981.

Turning to C33G C45A, the self-cleavage came to 0.47.

Consider C33G C45G, for which the self-cleavage amounted to 0.537. The figure for C33G C45U is 0.641; for C33G U46G it is 0.604. The figure for C33G U46C is 0.783.

With C33G C57U, the self-cleavage is 0.316. The figure for C33G C57G is 0.259; for C33G C57A it is 0.38; for C32G G37C it is 0.184. As for C32G G37A, the self-cleavage came out at 0.195.

Take C32G G37U: the self-cleavage was 0.149.

On to C32U G58A, for which the self-cleavage came out at 0.983. In the case of C33A U36C, the self-cleavage came to 0.785. The figure for C33A U36G is 0.256; for C33A U36A it is 0.157. The figure for C33A A51G is 0.7. The figure for C33A A51C is 0.366; for C33A A51U it is 0.46.

On to C32U U43C, for which the self-cleavage stood at 0.947. With C32U U43G, the self-cleavage worked out at 0.963. For C32U U43A the value was 0.933; for C32U U55G, 0.896; for C32U U55A, 0.989. On to C32U U53G, for which the self-cleavage was found to be 0.967. For C32U U53A the value was 0.982; for C33G A52C, 0.461; for C33G A52G, 0.663.

Turning to C33U G48C, the self-cleavage was found to be 0.998.

On to C33U G48U, for which the self-cleavage was 1.03.

As for C33U G48A, the self-cleavage is 1. For C33U C57U the value was 0.345; for C33A C34G, 0.229. In the case of C33A C34A, the self-cleavage turned out to be 0.331. For C32G C45G the value was 0.434. For C33G U69A the value was 0.82. For C33G U69G the value was 0.899; for C32G U44G, 0.426. Turning to C32G U44A, the self-cleavage was determined as 0.385. The figure for C33U A59U is 0.8; for C33U A59G it is 0.959; for C33U A59C it is 0.706. For C32U U46G the value was 0.951; for C32U U46A, 1; for C32U U46C, 1. For C32U U61C the value was 0.856; for C32U U61G, 0.829. On to C33U G37C, for which the self-cleavage stood at 0.242.

Regarding C33U G37A, the self-cleavage came to 0.265. For C33G U49C, the self-cleavage was found to be 0.645. Turning to C33G U49A, the self-cleavage was 0.748. For C33G G48C the value was 0.629; for C33G G48U, 0.579. As to C33G G48A, the self-cleavage was 0.648. For C32U G50A the value was 0.995; for C32U G50U, 0.978; for C33A A60U, 0.38. The figure for C33A A60G is 0.378; for C33A C45U it is 0.799; for C32A U64A it is 0.519. For C32A U64G the value was 0.726; for C32A U64C, 0.499. With C32G, the self-cleavage was 0.584. With C32U, the self-cleavage amounted to 0.993.

Consider C32U U64G, for which the self-cleavage stood at 1.01. The figure for C33A G68U is 0.904; for C33A G68A it is 0.951; for C32U G56A it is 0.94. The figure for C32U G56U is 0.971; for C33U C45A it is 0.987. The figure for C33U C45G is 0.98; for C33A U53G it is 0.346; for C33A U53A it is 0.392. C33A U53C: the self-cleavage turned out to be 0.48.

C32U U62G: the self-cleavage was 0.864. For C32G U38A, the self-cleavage stood at 0.443. C32G U38G: the self-cleavage came to 0.207. For C32G U38C the value was 0.235; for C32U U49A, 1.01; for C32A U36C, 0.593. For C32A U36A, the self-cleavage was 0.275. The figure for C32G G41A is 0.35; for C32G G41C it is 0.267; for C32G U49A it is 0.658.

C32G U49C: the self-cleavage came out at 0.543. For C33G U53G the value was 0.32. As to C33G U53A, the self-cleavage was 0.395. For C32U A52G the value was 0.967; for C32U A52U, 0.987. The figure for C32G C35G is 0.303; for C32G C35A it is 0.143. As for C33A A59C, the self-cleavage amounted to 0.322.

Turning to C32G C66G, the self-cleavage was determined as 0.227. The figure for C32A U49A is 0.871; for C32A U49C it is 0.704. For the variant C33U G41C, the self-cleavage is 0.728. Turning to C33U G41U, the self-cleavage worked out at 0.821. The figure for C33A G56U is 0.756; for C33A G56C it is 0.488; for C32G C33U it is 0.287. Consider C32G C33G, for which the self-cleavage was found to be 0.179. The figure for C32G C33A is 0.309; for C32G U61A it is 0.292; for C32U U36G it is 0.297.

With C33G C66A, the self-cleavage came out at 0.526.

Turning to C33G C66U, the self-cleavage amounted to 0.649. The figure for C33A C54U is 0.723.

Take C33A C54G: the self-cleavage turned out to be 0.301. For C33A C54A, the self-cleavage is 0.326. For C33A G48C the value was 0.898; for C33A G48U, 0.929; for C32U C33U, 0.861.

As to C32U C33A, the self-cleavage turned out to be 0.593.

On to C32U U38C, for which the self-cleavage stood at 0.955. Turning to C33U C35U, the self-cleavage was determined as 0.884. The figure for C33U C35G is 0.396. C33G C35G: the self-cleavage is 0.318. For the variant C33G C35A, the self-cleavage came out at 0.304.

Turning to C33A G47C, the self-cleavage was 0.946.

On to C33A G47A, for which the self-cleavage was found to be 0.925.

For the variant C32A G68U, the self-cleavage came out at 1.01. The figure for C33A G41A is 0.349. With C33A G41U, the self-cleavage is 0.562.

On to C33U C39A, for which the self-cleavage amounted to 0.866.

For C32A U61C, the self-cleavage turned out to be 0.365. The figure for C32A U61G is 0.421.

In the case of C32A U61A, the self-cleavage is 0.406. For C33A U64G the value was 0.672; for C33A U64A, 0.847. For C33A U64C the value was 0.798; for C32U G65C, 0.778; for C32U G65A, 0.988. Take C33U C54U: the self-cleavage came out at 0.949. In the case of C32U U44A, the self-cleavage was 0.948.

Regarding C33U C34U, the self-cleavage worked out at 0.825.

Regarding C33U C34A, the self-cleavage worked out at 0.413.

For C32G G50U, the self-cleavage was found to be 0.503.

Turning to C32G G50C, the self-cleavage was 0.299. As for C32U G37U, the self-cleavage amounted to 0.292. For C32G A40U the value was 0.281. Turning to C32G A40G, the self-cleavage was found to be 0.442.

As to C32G A40C, the self-cleavage amounted to 0.308. The figure for C33G U38A is 0.582.

Regarding C33U A51G, the self-cleavage was 0.922. For C33U A51C the value was 0.948.

Consider C33U A51U, for which the self-cleavage was 0.963. For C32G C34U the value was 0.363; for C32U G68A, 0.977. For C32U G68U the value was 1.02. Regarding C32U G68C, the self-cleavage was 1.02. The figure for C33G U43G is 0.377; for C33A C35U it is 0.442.

As to C33A C35A, the self-cleavage was 0.151. For C33A C35G the value was 0.204.

Turning to C32G G47A, the self-cleavage amounted to 0.673. For C32G G47C the value was 0.683. The figure for C32G U43C is 0.364; for C32G U43G it is 0.331. For C32G U43A the value was 0.238; for C32U A60G, 0.906. Regarding C32U U67A, the self-cleavage is 0.987.

As for C33A U55G, the self-cleavage was 0.319. For C33A U55A the value was 0.486. The figure for C33A U55C is 0.438; for C32U C35G it is 0.349. As for C33A G58C, the self-cleavage worked out at 0.837. For C33A G58U, the self-cleavage worked out at 0.881.
